This note sets out measurements from patent US20120135472.

The target in this data set is T1, small fragment of Nanoarchaeum equitans DNA polymerase (Neq S).
T1 chain: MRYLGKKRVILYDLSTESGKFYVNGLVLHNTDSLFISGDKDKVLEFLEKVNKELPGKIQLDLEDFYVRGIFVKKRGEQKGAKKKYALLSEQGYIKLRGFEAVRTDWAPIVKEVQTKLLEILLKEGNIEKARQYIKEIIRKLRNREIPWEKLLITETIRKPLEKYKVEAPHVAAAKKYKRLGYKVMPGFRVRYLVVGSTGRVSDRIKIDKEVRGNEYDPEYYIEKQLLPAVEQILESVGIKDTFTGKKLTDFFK

B1: large fragment of Nanoarchaeum equitans DNA polymerase (Neq L) (protein)
chain: MLHQLPTMVVEEKAVKEEEGYSVLKCYWINIENTPLDEVILIGKDENNRACEVIIPYKWYFYFEGDIKDLEEFANNKKIKIEYTKEQKKYIEKPKDVYKVYVLHKHYPILKEFIKEKGYKKYETDINVYRKFLIDKGIEPFEWFEVEGKILLSTSNKVRIKAQSIKRLYEKTKPSVLAFDIEVYSEAFPNPEKDKIISIALYGDNYEGVISYKGEPTIKVNTEYELIEKFVEIIESLKPDIIVTYNGDNFDIDFLVKRASLYNIRLPIKLVNKKEPTYNFRESAHVDLYKTITTIYKTQLSTQTYSLNEVAKEILGEEKIYDYENMLYDWAIGNYNKVFEYNLKDAELTYKLFKYYENDLLELARLVNQPLFDVSRFSYSNIVEWYLIKKSRKYNEIVPNKPKMEEVERRKLNTYAGAFVYEPKPGLYENLAVLDFASLYPSIILEHNVSPGTIYCEHDDCKQNGVEAIINNEKKYVWFCKKVKGFIPTVLEHLYTKRLELKRKLKELDRDSEEYKIINAKQAVLKIIINATYGYMGFPNARWYCIDCAAAVAAWGRKYINYILKRAEEEGFKVIYGDSIMDTEIEVIENGIKKKEKLSDLFNKYYAGFQIGEKHYAFPPDLYVYDGERWVKVYSIIKHETETDLYEINGITLSANHLVLSKGNWVKAKEYENKNN
As for B1, the “activity of DNA polymerase (3H-dTTP incorporation, relative to 20 pmoles of Neq P = 100%)” value is “The activity of DNA polymerase of the solution was very low after the protein trans-splicing of Neq L and Neq S at 60° C., but was maximized at 95 °C”.
